Test results published in the supplement of paper PMC9170038.

System: MS2 coat protein
Experiment: apparent KD of MS2 coat protein; designed switch direction (-1 OFF switch, 1 ON switch): -1; higher = weaker reporter binding
Method in brief: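 RNA switches sharing common flanks were transcribed by stalled E. coli RNA polymerase on Illumina chips. A doubling series of SNAP-549-labelled MS2 coat protein, from 0.7 or 1.5 nM to 3 µM, was applied in Tris-HCl pH 7.5 buffer with KCl, MgCl2, BSA, DTT, tRNA and Tween-20. Each step lasted 0.8–1.5 h at the bottom of the series and 10–20 min at the top. Normalised cluster fluorescence was curve-fitted, giving apparent KD as the per-design median over clusters.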

[1] = Eterna round: R95, input ligand: FMN 200 uM
[2] = Eterna round: R95, input ligand: microRNA oligo, concentration not stated
[3] = Eterna round: R95, input ligand: none
[4] = input ligand: microRNA oligo, concentration not stated

Sequence | apparent KD of MS2 coat protein [1] [nM] | apparent KD of MS2 coat protein [2] [nM] | apparent KD of MS2 coat protein [3] [nM] | apparent KD of MS2 coat protein (input ligand: FMN 200 uM) [nM] | apparent KD of MS2 coat protein (input ligand: none) [nM] | apparent KD of MS2 coat protein [4] [nM]
CAUGGAACGUAGGAUAUCUCGCGGCUAGGCUGCAGAGAAGGACGCACAUGAGGAUCACCCAUGUGUGAUCCAAA [Tibiataus] (puzzle: Exclusion 6) | 27.6 | 17 | 21.9 |  |  | 
AGCAAGCUUUAAAGAUCCUACAUGAGGAUCACCCAUGUGCUCGUCUUAUAACGUACUGUGACGAAAGUCACGGUACG [JL TOV1 3.33] (Eterna round: R97, puzzle: Sensor, turn-off variant 1) |  |  |  | 357 | 603 | 
UCUGUUCAAGGAUAUGCGUAAGGUGUUACGGCACCAGGUCUACAUGAGGAUCACCCAUGUAGAAGGUGAUCAGA [EX2 #88] (Eterna round: R97, puzzle: Exclusion 2) |  |  |  | 22.4 | 20.3 | 
UUUAUAUAGUAAGGAUAUGUAUUAAUUUUAUCAACAGAAGGUACUGACAUGAGGAUCACCCAUGUUUUAGUGUGGGCAUGUAGU [JMF's solution 93] (Eterna round: R96, puzzle: Exclusion NG 1) |  |  |  | 543 | 536 | 493
GAUAUGUAAGGAUAUCGUGCAAGUUUCAAAAGAGGCUUGUGCGAGAAGGUACAUGAGGAUCACCCAUGUAGGUU [Omei Ex4 B14] (Eterna round: R97, puzzle: Exclusion 4) |  |  |  | 116 | 29.6 | 
AGUUGGGCAGGAUAUACAUGAGGAUCACCCAUGUGAGAGAUACUAGUGAGGUCGAUUAGUAGAAGGGCCUGACA [Mat X3R4 m2] (Eterna round: R97, puzzle: Exclusion 3) |  |  |  | 251 | 40.9 | 
GUAACAUGCUGGUGAUCAUACAUGAGGAUCACCCAUGUAACAAGCUUUUUGCUCGUCUUAAUUUAAUUGAUUACUAG [Stov1/8-A2] (Eterna round: R97, puzzle: Sensor, turn-off variant 1) |  |  |  | 137 | 106 | 
CCCAGUUAUGAAGGAUAUUGUACAUGAGGAUCACCCAUGUAAUAAAUGAGGAUUUCGGGUGUCUACAAGAAGGUCAGGAUAGGC [Ostracism 14 - Jieux - Exclusion NG 2] (Eterna round: R96, puzzle: Exclusion NG 2) |  |  |  | 82.8 | 60.6 | 43.6
AAGGACCGUGUAGGAUAUGCACUGAAUAGGUCAGGAGGGUUCUUACACAUGAGGAUCACCCAUGUGUAGAAGGACGGAAGGUCA [Eternabot solution 25] (Eterna round: R96, puzzle: Exclusion NG 2) |  |  |  | 12.7 | 15.2 | 11.4
UACAUGAGGAUCACCCAUGUUUUGUCGUGUAUGGUAUUUAUCUAGGAUAUCAUGUUAUUUAUUUAUGAGAAGGAGAAUAUUAAU [JMF's solution 24] (Eterna round: R96, puzzle: Exclusion NG 3) |  |  |  | 32.6 | 32.5 | 29.1
UGGCUGCUCAGGGAGUGUGACAUGAGGAUCACCCAUGUGGUAGUAAGGAACAAGCUUUUUACACGUACUUAUAAAGC [JR_SV3TOV1_Sub011] (puzzle: Sensor v3, turn-off variant 1) | 157 | 135 | 296 |  |  | 
GUAUGUAACUAGGAUAUCAGCAUACUUCAAUGUUGAGAAGGAGUUACAUGAGGAUCACCCAUGUAUCCAACAUG [Exclusion 6 - 3:b] (puzzle: Exclusion 6) | 43.4 | 52.5 | 69.1 |  |  | 
GAGAAGUGAGGAUAUGCGAUAAGGAUGAAAGGAAGGAAUGAGUAGAAGGCACAUGAGGAUCACCCAUGUAGAGU [JR_Exclu4_Sub080] (puzzle: Exclusion 4) | 25.3 | 21.3 | 21 |  |  | 
ACGUGAUAUCUGUCGGUGGACAUGAGGAUCACCCAUGUAAGCUUCUUGCUCGUCUUAUAACCCGGUGACAGACCUUC [Zalaso] (puzzle: Sensor v3, turn-off variant 1) | 42.8 | 449 | 47 |  |  | 
CCGUACGGAGGAUAUACAUGAGGAUCACCCAUGUGUCCGCGCGUGGGAACACGUAAUAGUAGAAGGCCGUCCGG [jl-ex3-4.78 Brourd automod] (Eterna round: R97, puzzle: Exclusion 3) |  |  |  | 491 | 59.4 | 
GUCACAUGGGUAUAGGAUCACAUGAGGAUCACCCAUGUGACUAACAAGCUUUUUGCUCGUCUUAUGUCUAUGUGAAG [Stov1/18-A1] (Eterna round: R97, puzzle: Sensor, turn-off variant 1) |  |  |  | 42.9 | 26.9 | 
CCCUCGCGAGGAUAUGCAUCCUCCCUCAUUUCUUUCACUACACAUGAGGAUCACCCAUGUAGAAGGCGCUCUCC [Nina] (puzzle: Exclusion 2) |  | 41.2 |  |  |  | 
UAUGUGUCAGGAUAUUAGUAGUAAAUAAAUAAAAUUAUUACUGAGAAGGGACAUGAGGAUCACCCAUGUGCCUU [Salish 062 v31] (Eterna round: R97, puzzle: Exclusion 4) |  |  |  | 23.2 | 12.3 | 
GAGGGACAUGAGGAUCACCCAUGUGAGGAUAUGUAAGAGAGAAGAGAGAGGAUAAGAAACAGAAGGCGCGGGAG [JR_Exclu1_Sub090] (puzzle: Exclusion 1) | 33.9 | 44 | 77.1 |  |  | 
GACCCUAGGGUCAGAUGCACAAGCUUUUUGCUCGUUUUAACAUGAGGAUCACCCAUGUCUAGUGGAUCUGAUCGGGC [Erorente] (puzzle: Sensor v3, turn-off variant 2) | 20.6 | 88.8 | 18.2 |  |  | 
CGGCACCGAGGAUAUACAUGAGGAUCACCCAUGUUUGUUGGGCCCUUAAGAUCUACGUGUAGAAGGUGGGUCGA [Edaribi] (Eterna round: R96, puzzle: Exclusion 3) |  |  |  | 241 | 173 | 147
ACCAGACAUGAGGAUCACCCAUGUCAGGAUAUUAUUCUACCUGAAGUUCGGGAUUGUGUGAGAAGGGACUGGGA [Eternabot (L2) Solution 86] (Eterna round: R97, puzzle: Exclusion 1) |  |  |  | 17.4 | 16.1 | 
AAUUAUUGAUGAGGAUAUUGUGGUGAAACACCACAAGAAGGCAUUAUACACAUGAGGAUCACCCAUGUGAGCCUGAUGCUUAUG [Ex NG1 #55] (Eterna round: R96, puzzle: Exclusion NG 1) |  |  |  |  |  | 12.7
GCAAGCUUUUUGGUUUUCAACAUGAGGAUCACCCAUGUUCGUCUUAUACCCGGGCCCGGGCGGUGCCCGGGCCCGGG [-40, -68 kcal, A 14%] (Eterna round: R97, puzzle: Sensor, turn-off variant 1) |  |  |  | 18.2 | 21.7 | 
UUUUUCUCAGGAUAUACAUGAGGAUCACCCAUGUAUAUUAAAAAUAAUACAUGGGAAUGUAGAAGGGAGCUCAU [Omei Ex3 Pseudoloop 9] (Eterna round: R97, puzzle: Exclusion 3) |  |  |  | 141 | 161 | 
ACCGGUGUUGCGGAUAAGCUUUUCUGCUCGUUUUAUCGCACAUGAGGAUCACCCAUGUCAUCCGUCAGCAUGCAAAC [Usveen] (puzzle: Sensor v3, turn-off variant 2) | 22.6 | 38.8 | 25.1 |  |  | 
CCCUCACUUGAGGAUCACCCAAGUCAGGAUAUCUCACCCGUCCUGCAAGACGGGUCACAGAGAAGGGACUAAAA [Araatra] (Eterna round: R97, puzzle: Exclusion 1) |  |  |  | 69 | 21.9 | 
CUGAGUAGUCAGGAUAUGCUGUACAAAAGUACAGCAGAAGGGAUUACAUGAGGAUCACCCAUGUGAACUUCAUG [)mei Ex6 B21] (Eterna round: R97, puzzle: Exclusion 6) |  |  |  | 681 | 652 | 
UGAUUGUUUACCAGAUUAUACAUGAGGAUCACCCAUGUAGAUCCUACGUGCACGUUAUACCGCUCGUCUUAUUCCCA [Sensor-V1 #75] (Eterna round: R97, puzzle: Sensor, turn-off variant 1) |  |  |  | 44.6 | 41.2 | 
GUGAGCAGACGGAGAUCCAACAUGAGGAUCACCCAUGUCUCACAAGCUUUUUGCUCGUCUUAUCCUCCUCUGUUCAC [Elimod 22 - Jieux - Sensor, turn-off variant 1] (Eterna round: R97, puzzle: Sensor, turn-off variant 1) |  |  |  | 15.8 | 14.6 | 
